Target: T1, NY-ESO-1 peptide on HLA-B*40:01 (human)
T1 peptide: EFTVSGNIL
Assay: multimer staining
Source text: FIGS. 4A-4I are graphical representations of positive staining of Jurkat 76/CD8 cells transduced with B*40:01/NY-ESO-1₁₂₅₋₁₃₃ TCR genes with a cognate multimer. Jurkat 76/CD8 cells transduced with the B*40:01/NY-ESO-1₁₂₅₋₁₃₃ TCR (FIGS. 4B, 4E, and 4H) were stained with the B*40:01/NY-ESO-1₁₂₅₋₁₃₃ multimer (FIG. 4B). […], B*40:01/unexchanged multimer (FIGS. 4G, 4H, and 4I), and A*02:01/NY-ESO-1₁₅₇₋₁₆₅ TCR (clone 1G4LY; FIGS. 4C, 4F, and 4I) as well as untransduced Jurkat 76/CD8 cells (FIGS. 4A, 4D, and 4G) were employed as controls The percentage of multimer⁺ CD8⁺ cells is shown.
T cells (1×10⁵) were incubated for 30 minutes at 37° C. in the presence of 50 nM dasatinib (LC laboratories). The cells were then washed and incubated with 5-10 μg/ml of multimer for 30 minutes at room temperature, and R-phycoerythrin-conjugated AffiniPure Fab fragment goat anti-mouse IgG1 (Jackson ImmunoResearch Laboratories) was added for 15 minutes at 4° C. Next, the cells were washed three times and costained with an anti-CD8 mAb for 15 minutes at 4° C. Dead cells were finally discriminated using the LIVE/DEAD Fixable Dead Cell Stain kit.

binding result: recognises
B1: B*40:01/NY-ESO-1125-133 TCR (TCR, V domains shown)
Valpha: SQQGEEDPQALSIQEGENATMNCSYKTSINNLQWYRQNSGRGLVHLILIRSNEREKHSGRLRVTLDTSKKSSSLLITASRAADTASYFCATDRGTDKLIFGTGTRLQVFP
Vbeta: NAGVTQTPKFRVLKTGQSMTLLCAQDMNHEYMYWYRQDPGMGLRLIHYSVGEGTTAKGEVPDGYNVSRLKKQNFLLGLESAAPSQTSVYFCASSPGVGTEAFFGQGTRLTVV

From patent publication US20220152104A1 (published 2022)
